This passage reports stoichiometry N and expression_or_secretion results from paper PMC9616921.

Data set [1] has as its target minimal mature VEGF-C refolded from E. coli inclusion bodies (human). Put plainly: SEC; refolded, dialysed and concentrated material on Superdex 75 10/300 GL in PBS, 0.5-0.6 mL/min; calibrated with BSA, carbonic anhydrase and RNaseA; dimeric fractions 11.5-13.5 mL, monomeric fractions 13.5-15.5 mL.
Data set [2] can be described thus: IP of 35S-labelled 293T supernatants and lysates, SDS-PAGE. As to conditions: glycan lost; control: wild type.

For “minimal mature VEGF-C refolded from E. coli inclusion bodies (domain or fragment)”, the stoichiometry N (in general, a count of units in the complex or per binding partner) in data set [1] was determined as 2.

B1: VEGF-C: N175,205W (protein)
parent chain: MHLLGFFSVACSLLAAALLPGPREAPAAAAAFESGLDLSDAEPDAGEATAYASKDLEEQLRSVSSVDELMTVLYPEYWKMYKCQLRKGGWQHNREQANLNSRTEETIKFAAAHYNTEILKSIDNEWRKTQCMPREVCIDVGKEFGVATNTFFKPPCVSVYRCGGCCNSEGLQCMNTSTSYLSKTLFEITVPLSQGPKPVTISFANHTSCRCMSKLDVYRQVHSIIRRSLPATLPQCQAANKTCPTNYMWNNHICRCLAQEDFMFSSDAGDDSTDGFHDICGPNKELDEETCQCVCRAGLRPASCGPHKELDRNSCQCVCKNKLFPSQCGANREFDENTCQCVCKRTCPRNQPLNPGKCACECTESPQKCLLKGKKFHHQTCSCYRRPCTNRQKACEPGFSYSEEVCRCVPSYWKRPQMS
As for B1, in data set [2], the expression_or_secretion entry is reported as “abolishes”.

B2: VEGF-C: N175,205Q (protein)
parent chain: MHLLGFFSVACSLLAAALLPGPREAPAAAAAFESGLDLSDAEPDAGEATAYASKDLEEQLRSVSSVDELMTVLYPEYWKMYKCQLRKGGWQHNREQANLNSRTEETIKFAAAHYNTEILKSIDNEWRKTQCMPREVCIDVGKEFGVATNTFFKPPCVSVYRCGGCCNSEGLQCMNTSTSYLSKTLFEITVPLSQGPKPVTISFANHTSCRCMSKLDVYRQVHSIIRRSLPATLPQCQAANKTCPTNYMWNNHICRCLAQEDFMFSSDAGDDSTDGFHDICGPNKELDEETCQCVCRAGLRPASCGPHKELDRNSCQCVCKNKLFPSQCGANREFDENTCQCVCKRTCPRNQPLNPGKCACECTESPQKCLLKGKKFHHQTCSCYRRPCTNRQKACEPGFSYSEEVCRCVPSYWKRPQMS
Consider B2, for which, in data set [2], the expression_or_secretion entry is on record as “abolishes”.
